Results on 18 molecules are retold here after patent publication US20140051120A1 (Genentech, published 2014).

T1: p2S (p2 peptide biotinylated through its free cysteine) (human, also: biotinylated (maleimide PEO2-biotin) on one of the two Cys, which one not given here)
T1 construct: The peptide has two cysteines; also called b-p2S
T1 peptide: RPRYACCPGWKRT

T2: p5 peptide of EGFL7 (human)
T2 construct: also called Peptide P5
T2 peptide: RACSTYRTIYRTA

T3: mouse EGFL7 (mEGFL7-CB-His) (mouse, UniProt Q9QXT5 22-275)
T3 sequence: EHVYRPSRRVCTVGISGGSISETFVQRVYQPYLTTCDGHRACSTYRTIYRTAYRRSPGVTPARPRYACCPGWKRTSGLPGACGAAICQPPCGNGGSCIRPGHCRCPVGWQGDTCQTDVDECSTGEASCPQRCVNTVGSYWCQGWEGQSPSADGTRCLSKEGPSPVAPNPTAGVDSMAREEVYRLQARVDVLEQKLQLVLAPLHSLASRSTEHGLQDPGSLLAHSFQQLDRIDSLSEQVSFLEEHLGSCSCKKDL

B1: 4F11.v1 IgG (antibody, V domains shown)
VH: EVQLVESGGGLVQPGGSLRLSCAASGHTFTTYGMSWVRQAPGKGLEWVGWINTHSGVPTYADDFKGRFTISRDNSKNTLYLQMNSLRAEDTAVYYCARLGSSAVDYWGQGTLVTVSS
VL: DIQMTQSPSSLSASVGDRVTITCKASQSVDYDGDSYMSWYQQKPGKAPKLLIYGASNLESGVPSRFSGSGSGTDFTLTISSLQPEDFATYYCQQNNEDPYTFGQGTKVEIKR
notes: Expressed as IgG in 293 cells; also called 4F11-graft; direct CDR-graft
B2: 4F11.v2 IgG (antibody, name in Kabat numbering, V domains shown)
VH: B1 VH with L79T
VL: B1 VL
notes: IgG; Kabat numbering
B3: 4F11.v9 IgG (antibody, V domains shown)
VH: B1 VH with F29R, L79V
VL: DIQMTQSPSSLSASVGDRVTITCKASQSVDYDGDSYMSWYQQKPGKAPKLLIYGASNLESGVPSRFSGSGSGTDFTLTISSLQPEDFATYYCQQNNEDPYTFGQGTKVEIK
notes: IgG; Kabat numbering
B4: 4F11.v4 IgG (antibody, V domains shown)
VH: B1 VH with L79V
VL: B3 VL with D32R
notes: IgG; Kabat numbering
B5: 4F11.v5 IgG (antibody, V domains shown)
VH: B1 VH with L79V
VL: B3 VL with M37V
notes: IgG; Kabat numbering
B6: 4F11.v3 IgG (antibody, name in Kabat numbering, V domains shown)
VH: B1 VH with L79V
VL: B1 VL
notes: IgG; Kabat numbering
B7: 18F7.v3 IgG (antibody, name in Kabat numbering, V domains shown)
VH: EVQLVESGGGLVQPGGSLRLSCAASGYTFIDYYMNWVRQAPGKGLEWVGDINLDNGGTHYNQKFKGRFTISRDKSKNTAYLQMNSLRAEDTAVYYCAREGVYHDYDDYAMDYWGQGTLVTVSS
VL: DIQMTQSPSSLSASVGDRVTITCRTSQSLVHINGITYLHWYQQKPGKAPKLLIYRVSNRFSGVPSRFSGSGSGTDFTLTISSLQPEDFATYYCSQSTHVPLTFGQGTKVEIKR
notes: IgG; Kabat numbering; also called 18F7-KA
B8: 18F7.v6E IgG (antibody, V domains shown)
VH: B7 VH with G56S
VL: DIQMTQSPSSLSASVGDRVTITCRTSQSLVHISGITYLHWYQQKPGKAPKLLIYRVSNRFSGVPSRFSGSGSGTDFTLTISSLQPEDFATYYCGQSTHVPLTFGQGTKVEIK
notes: IgG; Variant of 18F7.v6
B9: 18F7.v10 IgG (antibody, V domains shown)
VH: B7 VH with D104P
VL: B8 VL with S33N, G94S
notes: IgG; Kabat numbering
B10: 18F7.v9 IgG (antibody, V domains shown)
VH: B7 VH with Y32K
VL: B8 VL with S33N, G94S
notes: IgG; Kabat numbering
B11: 18F7.v7 IgG (antibody, V domains shown)
VH: B7 VH
VL: B8 VL with S33N, G94A
notes: IgG; Kabat numbering
B12: 18F7.v5 IgG (antibody, V domains shown)
VH: B7 VH
VL: B8 VL with S33N, F60G, G94S
notes: IgG; Kabat numbering
B13: 18F7.v4 IgG (antibody, name in Kabat numbering, V domains shown)
VH: B7 VH with A79V
VL: B7 VL
notes: IgG; Kabat numbering; also called 18F7-KV
B14: 18F7.v2 IgG (antibody, name in Kabat numbering, V domains shown)
VH: B7 VH with A79L
VL: B7 VL
notes: IgG; Kabat numbering; also called 18F7-K
B15: 18F7.v1 IgG (18F7-graft) (antibody, V domains shown)
VH: B7 VH with K74N, A79L
VL: B7 VL
notes: Expressed as IgG
B16: 18F7.v6I IgG (antibody, V domains shown)
VH: B7 VH with G56S
VL: B8 VL with S33Q
notes: IgG; Variant of 18F7.v6
B17: 18F7.v8 IgG (antibody, V domains shown)
VH: B7 VH
VL: B8 VL with S33N, G94V
notes: IgG; Kabat numbering
B18: 18F7.v6J IgG (antibody, V domains shown)
VH: B7 VH with G56S
VL: B8 VL with S33N, G34S
notes: IgG; Variant of 18F7.v6

Numbering of substitutions follows the chain as printed. Where no end group is shown, it is not given here.

The target of the first test is T1, p2S (p2 peptide biotinylated through …). Kind of test: SPR (BIAcore-2000), IgG injected over immobilized p2S peptide.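 Further: CM5 chip with immobilized peptide, IgG at 0.5–1000 nM in PBST, 3 min association and 3.5 min dissociation, reference-cell subtracted, rates fitted by 1:1 Langmuir model.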 On the technique in general: In SPR one partner is held on a chip, and binding of the other changes the refractive index at the surface.
Procedure: Affinity determinations were performed by surface plasmon resonance using a BIAcore™-2000. […] Purified IgG variants were injected (using a 2-fold serial dilution of 0.5 to 1000 nM in PBST) at a flow rate of 30 μL/min. Each sample was analyzed with 3-minute association and 3.5-minute disassociation. After each injection the chip was regenerated using 10 mM glycine pH 1.7.
(§1) Binding response was corrected by subtracting a control flow cell from IgG variant flow cells. A 1:1 Languir model of simultaneous fitting of kₒₙ and koff was used for kinetics analysis.
On to B1, for which the Kd (commonly the concentration at which binding is half-saturated) was found to be 96.8 nM; the koff (as a rule, the rate constant with which the complex falls apart) stood at 0.00331 s⁻¹; the kon (usually the rate constant with which the complex forms) was 34200 M⁻¹ s⁻¹.

Molecule B2 displayed a Kd of 54.4 nM, a koff of 0.00291 s⁻¹ and a kon of 53500 M⁻¹ s⁻¹.

For the molecule B3, binding was put at a Kd of 9 nM, the koff worked out at 0.0023 s⁻¹ and the kon is 264000 M⁻¹ s⁻¹.

On to B4, for which the affinity, expressed as Kd, was 13.6 nM; the koff is 0.00314 s⁻¹; the kon stood at 231000 M⁻¹ s⁻¹.

As for B5, the affinity, expressed as Kd, was 34 nM; the koff worked out at 0.00242 s⁻¹; the kon stood at 71100 M⁻¹ s⁻¹.

B6 gave a Kd of 34.6 nM, a koff of 0.00292 s⁻¹ and a kon of 84500 M⁻¹ s⁻¹.

In a further test the target is T2, p5 peptide of EGFL7. Description: SPR (Biacore), IgG over immobilized P5 peptide at 37 C.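 Further: IgG variants injected at 0.5–1000 nM (2-fold series), 3 min association and 3.5 min dissociation, reference flow cell subtracted, kinetics fitted with a 1:1 Langmuir model.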
B7 showed a Kd of 4.22 nM, a koff of 0.000858 s⁻¹ and a kon of 203000 M⁻¹ s⁻¹.

With B8, the affinity, expressed as Kd, was 5.1 nM; the koff turned out to be 0.00154 s⁻¹; the kon is 303000 M⁻¹ s⁻¹.

B9 had a Kd of 0.982 nM, a koff of 0.000811 s⁻¹ and a kon of 825000 M⁻¹ s⁻¹.

As for B10, the Kd came out at 3.35 nM, the koff stood at 0.000763 s⁻¹ and the kon amounted to 228000 M⁻¹ s⁻¹.

B11: binding was characterised by a dissociation constant (Kd) of 2.87 nM, the koff worked out at 0.000718 s⁻¹ and the kon was 251000 M⁻¹ s⁻¹.

Molecule B12 came in with a Kd of 2.7 nM, a koff of 0.000892 s⁻¹ and a kon of 330000 M⁻¹ s⁻¹.

B13 registered a Kd of 7.27 nM, a koff of 0.00132 s⁻¹ and a kon of 182000 M⁻¹ s⁻¹.

On to B14, for which the Kd amounted to 2.59 nM, the off-rate (koff) amounted to 0.00119 s⁻¹ and the kon amounted to 458000 M⁻¹ s⁻¹.

Turning to B15, the affinity, expressed as Kd, was 6.3 nM; the koff is 0.002 s⁻¹; the kon came out at 317000 M⁻¹ s⁻¹.

With B16, the Kd came to 16.7 nM, the koff was 0.00316 s⁻¹ and the kon turned out to be 190000 M⁻¹ s⁻¹.

Regarding B17, binding was characterised by a dissociation constant (Kd) of 2.16 nM, the koff is 0.00102 s⁻¹ and the kon was found to be 472000 M⁻¹ s⁻¹.

Turning to B18, the Kd was 5.6 nM, the koff amounted to 0.000607 s⁻¹ and the kon was determined as 108000 M⁻¹ s⁻¹.

A further test deals with T3, mouse EGFL7 (mEGFL7-CB-His). Description: SPR (Biacore), IgG over immobilized mEGFL7-CB at 37 C.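 Further: IgG injected as twofold series from 0.5 to 1000 nM, 3 min association and 3.5 min dissociation, reference flow cell subtracted, kinetics fitted to 1:1 Langmuir model.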
Procedure: Affinity determinations were performed by surface plasmon resonance using a BIAcore™-2000. Truncated EGFL7 or p5 peptide was immobilized (approximately 50-200 RU) in 10 mM sodium acetate pH 4.8 on a CMS sensor chip. Purified IgG variants were injected (using a 2-fold serial dilution of 0.5 to 1000 nM in PBST) at a flow rate of 30 μL/min. Each sample was analyzed with 3-minute association and 3.5-minute disassociation. After each injection the chip was regenerated using 10 mM glycine pH 1.7.
as §1
In the case of B7, the affinity, expressed as Kd, was 1.64 nM; the koff worked out at 9.05e-05 s⁻¹; the kon stood at 55000 M⁻¹ s⁻¹.

Molecule B8 yielded a Kd of 9.9 nM, a dissociation rate constant (koff) of 0.000474 s⁻¹ and a kon of 48000 M⁻¹ s⁻¹.

B9 returned a Kd of 1.22 nM, a koff of 0.000195 s⁻¹ and a kon of 160000 M⁻¹ s⁻¹.

In the case of B10, the Kd worked out at 1.58 nM, the off-rate constant (koff) amounted to 9.32e-05 s⁻¹ and the kon came to 59000 M⁻¹ s⁻¹.

On to B11, for which the Kd was found to be 1.38 nM, the koff stood at 9.58e-05 s⁻¹ and the kon was found to be 70000 M⁻¹ s⁻¹.

For B12, binding was put at a Kd of 1.61 nM, the koff is 0.000117 s⁻¹ and the kon was 73000 M⁻¹ s⁻¹.

B13 registered a Kd of 4.15 nM, an off-rate (koff) of 0.000208 s⁻¹ and an on-rate constant (kon) of 50000 M⁻¹ s⁻¹.

For B14, the Kd worked out at 1.81 nM, the koff is 0.000198 s⁻¹ and the kon was 110000 M⁻¹ s⁻¹.

Regarding B15, the affinity, expressed as Kd, was 2.82 nM; the koff turned out to be 0.000274 s⁻¹; the kon stood at 97000 M⁻¹ s⁻¹.

In the case of B16, the Kd stood at 21.3 nM, the koff was 0.000488 s⁻¹ and the kon turned out to be 23000 M⁻¹ s⁻¹.

For B17, the Kd stood at 2.04 nM, the koff was determined as 0.000199 s⁻¹ and the kon came out at 98000 M⁻¹ s⁻¹.

On to B18, for which the Kd is 0.8 nM, the koff was found to be 1.64e-05 s⁻¹ and the kon came out at 21000 M⁻¹ s⁻¹.
